Experimental data taken from the DeepSol protein solubility set.

experiment: soluble on expression in E. coli; label from the status in PepcDB or PDB records

Soluble on expression in E. coli, not soluble:
MGSDKIHHHHHHMLMETTRLLDIRSMSVEFPGVKALDQVDFTLNRGEIVALLGENGAGKSTLIKALTGVYHRSSGDIILDGIAINPVNTAHAQSLGIGTVYQEVNLLPNLSVAANLFIGREPTRWGIVDQHKILLQAEALLLNYGLAIDVSHPLGNYSIAVQQIVAIARAVDLSAKVLILDEPTASLDAKEVDMLLDILRKLRDRGIGMIFVTHFLDQVYRISDRITVLRNGRLVGTLPTAELPRIELVQMMLGHSFDETLLKRGEHSDVSGEPIVQFKHYGRRGSINDFELSVRPGEIVGLAGLLGSGRTETAQLIFGINVPDAGEAWVDGKKINIRTPRAAGKLGFGYCPEDRKTDGIVGAATVRENIILALQAQRGWLKPISLREQTRIAEKFISLLGIRTPSAEQEIQYLSGGNQQKVLLSRWLATEPRFLILDEPTRGIDVGAHAEIIRLIEKLCEQGMALLVISSELEELTGYADRIIVLRDRQHVAHLEHSEISVAAVMQAIAVQTGAADDRQ, MDYTIVVSATASDAAPLKFLAPYSGCAIGEHFLDNGKHALIIFDDLSKKAANCHVVCRTDEIELDILNRMEEDIKLHPLTWYDIWSSLETKIKVVRARIPKSLSRR, MTVRILAVCGNGQGSSMIMKMKVDQFLTQSNIDHTVNSCAVGEYKSELSGADIIIASTHIAGEITVTGNKYVVGVRNMLSPADFGPKLLEVIKAHFPQDVK, THCHLKNGEYHIDLIPQRLRGEIASFDIHVPETGELIVEQGRRITARHIKQMEKSQMQDLVVPRDYLIGKTLAKNIIDTSTGEFLAQANDEITEELLDAMANHG, MGSDKIHHHHHHLYRIFRPIARFIVWVLNGHLHVHHKERLPEGTYILVAPHRNWWEPILFALAASPTEFMFMTKQELFKNPVLRWILNNAHAFPVNREHPSPSVIKIPVRGLKSEGLSLIMFPSGTRHSASLKSGALVIARMSGRPLLPAVYQGPLTFKGVLQRKGIEINFGNPIVIDRKTKLTPETEAAYNQQLEDAWKQIDQELDPDFHYEAK, MEYLFLRRKKTSSTSVRQKTLLYRAAGREWTARFSSLSDVRPADSLIYKGILYQLEIRRAFLDSSLSLKKLSMMLETNQTYLSNAVNRYFGCHLKELLNRYRVEYAKELLRNGGCPLGEVPSRSGFGSKSPFYLAFVRQTGMTPKRYAARERNLVNLEIENEVLL, MAAVKDSCGKGEMATGNGRRLHLGIPEAVFVEDVDSFMKQPGNETADTVLKKLDEQYQKYKFMELNLAQKKRRLKGQIPEIKQTLEILKYMQKKKESTNSMETRFLLADNLYCKASVPPTDKVCLWLGANVMLEYDIDEAQALLEKNLSTATKNLDSLEEDLDFLRDQFTTTEVNMARVYNWDVKRRNKDDSTKNKA, MALLQISEPGLSAAPHQRRLAAGIDLGTTNSLVATVRSGQAETLPDHEGRHLLPSVVHYQQQGHTVGYAARDNAAQDTANTISSVKRMMGRSLADIQTRYPHLPYRFKASVNGLPMIDTAAGLLNPVRVSADILKALAARASESLSGELDGVVITVPAYFDDAQRQGTKDAARLAGLHVLRLLNEPTAAAIAYGLDSGKEGVIAVYDLGGGTFDISILRLSRGVFEVLATGGDSALGGDDFDHLLADYIREQAGIADRSDNRVQRELLDAAIAAKIALSDADTVRVNVAGWQGEITREQFNDLISALVKRTLLACRRALKDAGVEPQDVLEVVMVGGSTRVPLVRERVGEFFGRTPLTAIDPDKVVAIGAAIQADILVGNKPDSEMLLLDVIPLSLGLETMGGLVEKVIPRNTTIPVARAQDFTTFKDGQTAMSIHVMQGERELVQDCRSLARFALRGIPPLPAGGAHIRVTFQVDADGLLSVTAMEKSTGVEASIQVKPSYGLTDGEIASMIKDSMSFAEQDVKARMLAEQKVEAARVLESLTGALTADAALLSAAERQCIDDAAAHLSAVAQGDDVDAIEQAIKNVDKQTQEFAARRMDQSVRRALKGHSVDEV, MNSTHHYEQLIEIFNSCFADDFNTRLIKGDDEPIYLPADAEVPYNRIVFAHGFYASAIHEISHWCIAGKARRELVDFGYWYCPDGRDAQTQSQFEDVEVKPQALDWLFCVAAGYPFNVSCDNLEGDFEPDRVVFQRRVHAQVMDYLTNGIPERPARFIKALQNYYHTPELTAEQFPWPEALN, MGSDKIHHHHHHMSTRMVTLHGRIVLRASIELLTGLHIGGAAGGLEIGGLDKPVIRNPITNQPYIPGSSLKGKLRSLMEKVYGAPQTFRINEGVFIHVPTNPEEYQRYYQIAGVFGTLPNHKQLTIDVPTRLIVRDVPLTRESEQELRRLRTDLPYTEIKWEAAIDRVTSAAAPRQIERVPAGAVFGPAEVVYSLYVGNGEQLSDVIRLFGSVYEAFTYLEDDYLGGMGSRGNGQVRLRDITVLARRLESGRYGELTTIREAKELRELDRNGLLEELQRFFNPA, MFSQNPYESHVDVAVSAASANLRNMTNEQLISLLDDDALLESIIVNLPQVRSMPTDKESALAANKSLAEWNLAQKPRIDAAKTQTVDLYDQVKKLQGEVAVLKSQLDSVSSSKSLDTTSSLMQVAAQEADDDAEALFTQFENGEISVEIFLKQFKDKKTIAHLRKIKSDRLAALLREQTYSSYAQPTVPPPMPHAQPGYPTGNHMPGIGNIQFGSGYSGYPNISQPSAGRHPFF, MARTIPVLEIFGPTIQGEGMVIGQKTMFVRTAGCDYRCRWCDSAFTWDGSAKDEIEQLTADEIWRRLEAIGGRRFRHVTISGGNPLLIAALGELIALLHEKGMRVAVETQGSRWQDWLLDIDDVTLSPKPPSSGMDTDWSALDQIIERLQADQSRVRRISLKVVVFDDADLAYAKEVHCRYPGVPFYLQTGNADVADSDVDALRAKLLSRLEWLVEQAADSEELADVHILPQLHTLLWGNKRGV

Soluble on expression in E. coli, soluble:
MDKNRVFGQRLRQSIQNYFSSPWLLYTAKAEALLDLRDDEAMLNEMEAVGELPMALEYESLTDVQTQIVTAIQAELAHFRNTAQPINLGAVLQEQLARYPQSRHFDVARIIVDQAVKLGMASQDHQAVYPVWQPIDDFSAAVQAHLIDQYDK, MAHHHHHHMSCITGITYLSSADINALSKGAGAGSSSGSRGTFVVREGDYVTGTITNVQGGSTPGIRLATSRGVTAFIAAVDICDEAMRVDLLEYIRRSEQLRDWNRHENGDARPPERAEAPVWLRRGALLQGTVSRCVWARCELHLQWCRPREELAGSGDDNGEKETAMPSYGNMERGGASSSVNSLNTAQVEQQVRVFATKMSRHPLFRDVSKNGAADMLRDKEIGESLLRPRTASVHRVVCEVKVGSNATNHWVISEERHANGQFYYKVEDRVVDRQWEFTDVDDFLCNFVEPMVKLIQSIRVHRRFEDSTEYVQAALDAQREVSGGFAYAFAETESKRHLYQVYSSGGNETYHFPLHITSEFIYIRLPFFHDGKASNKWVPCKSAEKVSETVKNYARAMSKRSVNGELH, MNPFHELEPGPEVPEVVYALIEIPKGSRNKYELDKKTGLLKLDRVLYSPFFYPVDYGIIPQTWYDDGDPFDIMVIMREPVYPLTIIEARPIGIMKMEDSGDKDWKVLAVPVEDPYFNDWKDISDVPKAFLDEIAHFFQRYKELQGKTTKIEGWGNAEEAKREILRAIEMYKEKFGKEE, MLSVEKFRVGERVVWIGVIFSGRVQGIAFAFDRGTLMKRIHDLAEHLGKRGVSISLDVQPSDYPEKVFKVLIGELDNASFLRELSFEGVTPFEKKVYEWLTKNVKRGSVITYGDLAKALNTSPRAVGGAMKRNPYPIVVPCHRVVAHDGIGYYSSGIEEKKFLLEIEGVKEWTS, MAEKFDCHYCRDPLQGKKYVQKDGHHCCLKCFDKFCANTCVECRKPIGADSKEVHYKNRFWHDTCFRCAKCLHPLANETFVAKDNKILCNKCTTREDSPKCKGCFKAIVAGDQNVEYKGTVWHKDCFTCSNCKQVIGTGSFFPKGEDFYCVTCHETKFAEHCVKCNKAITSGGITYQDQPWHADCFVCVTCSKKLAGQRFTAVEDQYYCVDCYKNFVAKKCAGCKNPITGFGKGSSVVAYEGQSWHDYCFHCKKCSVNLANKRFVFHQEQVYCPDCAKKL, AEKRNIFLVGPMGAGKSTIGRQLAQQLNMEFYDSDQEIEKRTGADVGWVFDLEGEEGFRDREEKVINELTEKQGIVLATGGGSVKSRETRNRLSARGVVVYLETTIEKQLARTQRDKKRPLLHVETPPREVLEALANERNPLYEEIADVTIRTDDQSAKVVANQIIHMLESN, MIALFNKLLDWFKALFWKEEMELTLVGLQYSGKTTFVNVIASGQFNEDMIPTVGFNMRKITKGNVTIKLWDIGGQPRFRSMWERYCRGVSAIVYMVDAADQEKIEASKNELHNLLDKPQLQGIPVLVLGNKRDLPGALDEKELIEKMNLSAIQDREICCYSISCKEKDNIDITLQWLIQHSKSRRS, MSLENKRILITGGAGFIGSNMVEHLLPKNEVTVIDNLSITDDRYIKKFYDNPNFKFIKKDILNGIDGYHYDIVVHLAADSDVRNGSSNPALDMKVNVEGTISVLEMMRKSDIKDILFASSSTVYGEAKVIPTPENYGPLLPISSYGASKLAAEAFISAYASYYGFNALLFRFANVVGKNSTHGVIFDFINKLKNNKKELEVLGDGTQAKSYIHVEDLIGSMIYVYEHVKGVEPFNLGNDDVTSVDKIAKFVLEAMGLKDTAIVHRGGYNGRGWPGDVKYAMMDIAKLKKTGWKNKYSSDEAVKKSINEVMNQILEGHHHHHH, MKRIGILTSGGDAPGMNAAVRAVTRVAIANGLEVFGIRYGFAGLVAGDIFPLESEDVAHLINVSGTFLYSARYPEFAEEEGQLAGIEQLKKHGIDAVVVIGGDGSYHGALQLTRHGFNSIGLPGTIDNDIPYTDATIGYDTACMTAMDAIDKIRDTASSHHRVFIVNVMGRNCGDIAMRVGVACGADAIVIPERPYDVEEIANRLKQAQESGKDHGLVVVAEGVMTADQFMAELKKYGDFDVRANVLGHMQRGGTPTVSDRVLASKLGSEAVHLLLEGKGGLAVGIENGKVTSHDILDLFDESHRGDYDLLKLNADLSR, SMNNKEVELYGGAITTVVPPGFIDASTLREVPDTQEVYVNSRRDEEEFEDGLATNESIIVDLLETVDKSDLKEAWQFHVEDLTELNGTTKWEALQEDTVQQGTKFTGLVMEVANKWGKPDLAQTVVIGVALIRLTQFDTDVVISINVPLTKEEASQASNKELPARCHAVYQLLQEMVRKFHVVDTSLFA, MASKYAVKLQTDFDNPKWIKRHKFMFDYLDINGNGQITLDEIVSKASDDICKNLGATPAQTQRHQDCVEAFFRGCGLEYGKETKFPEFLEGWKNLANADLAKWARNEPTLIREWGDAVFDIFDKDGSGTITLDEWKAYGRISGISPSEEDCEKTFQHCDLDNSGELDVDEMTRQHLGFWYTLDPEADGLYGNGVP, SQVDVKDCANHEIKKVLVPGCHGSEPCIIHRGKPFQLEAVFEANQNTKTAKIEIKASIDGLEVDVPGIDPNACHYMKCPLVKGQQYDIKYTWNVPKIAPKSENVVVTVKVMGDDGVLACAIATHAKIRD, TSKQRYSGKVHLCVARYSYNPFDGPNENPEAELPLTAGKYLYVYGDMDEDGFYEGELLDGQRGLVPSNFVDFVQDNESRLAST, LADSIVPRQQWAAIEPRRQIKMNGRADEIFLWQTGPDTCSLMGLTADKCQGCLQDSSCTEQIVKALQDADFKEGNDDIKYNFLIDQDGVIYEGRGWGVVGQHTKGRDSHSIGVAVIGDFGKKEPSQALQDALSKLIICGQAAEELSSGARLRTTPAMSGQAFYDMLDRCDGLCLDD
